This assay has as its target phosphoubiquitin (UniProt P0CG48 1-76, phosphorylated by PINK1 (Ser65)). Description: ITC.

The record followed here is article PMC5420311 (Nature structural & molecular biology, 2017).

B1: ΔUBL-Parkin (80-465) (domain or fragment)
chain: MNATGGDDPRNAAGGCEREPQSLTRVDLSSSVLPGDSVGLAVILHTDSRKDSPPAGSPAGRSIYNSFYVYCKGPCQRVQPGKLRVQCSTCRQATLTLTQGPSCWDDVLIPNRMSGECQSPHCPGTSAEFFFKCGAHPTSDKETSVALHLIATNSRNITCITCTDVRSPVLVFQCNSRHVICLDCFHLYCVTRLNDRQFVHDPQLGYSLPCVAGCPNSLIKELHHFRILGEEQYNRYQQYGAEECVLQMGGVLCPRPGCGAGLLPEPDQRKVTCEGGNGLGCGFAFCRECKEAYHEGECSAVFEASGTTTQAYRVDERAAEQARWEAASKETIKKTTKPCPRCHVPVEKNGGCMHMKCPQPQCRLEWCWNCGCEWNRVCMGDHWFDV
For the molecule B1, the binding result is “binds”.
